The values below come from patent US20240400693A1 (Chugai, published 2024).

Holding throughout (experiment): cell-based or functional assay
The target of assay [1] is HLA-DQ2.5 on IHW09023 cells loaded with gamma 3 gliadin peptide (human; wheat).
Assay [2] addresses HLA-DQ2.5 on IHW09023 cells loaded with gamma 4d gliadin peptide (human; wheat).
In assay [3] the target is HLA-DQ2.5 on IHW09023 cells loaded with BC hordein peptide (human; barley).
The target in assay [4] is HLA-DQ2.5 on IHW09023 cells loaded with 33mer gliadin peptide (human; wheat).
The target of assay [5] is HLA-DQ2.5 on IHW09023 cells loaded with gamma 2 gliadin peptide (human; wheat).
In assay [6] the target is HLA-DQ2.5 on IHW09023 cells loaded with gamma 1 gliadin peptide (human; wheat).
Assay [7] concerns the target HLA-DQ2.5 on IHW09023 cells loaded with gamma 4a gliadin peptide (human; wheat).
Assay [8] deals with HLA-DQ2.5 on IHW09023 cells loaded with omega1/2 gliadin peptide (human; wheat).

B1: DQN0344H0976/L0591//DQN0385H1270/L0722-F6 (bispecific antibody)
heavy 1: QVQLVESGGGVVQPGGSLRLSCAASGFTFSSAYWMVWVRQAPGQGLEWMGAVYGGSDTTYYAKWTEGRFTISRDTSKNTLYLQMNSLRAEDTAVYYCAREPLNYYYYGELNLWGQGTLVTVSSASTKGPSVFPLAPSSKSTSGGTAALGCLVKDYFPEPVTVSWNSGALTSGVHTFPAVLKSSGLYSLSSVVTVPSSSLGTQTYICNVNHKPSNTKVDKRVEPKSCDKTHTCPPCPAPELRRGPSVFLFPPKPKDTLMISRTPEVTCVVVDVSHEDPEVKFNWYVDGVEVHNAKTKPREEQYNSTYRVVSVLTVLHQDWLNGKEYKCKVSNKALPAPIEKTISKAKGQPREPQVYTLPPSREEMTKNQVSLTCLVKGFYPSDIAVEWESNGQPENNYKTTPPYLDSDGSFFLYSKLTVDKSRWQEGNVFSCSVLHEALHAHYTREELSLSP
light 1: DIQMTQSPSSLSASVGDRVTITCQATEEIYSGLAWYQQKPGKAPKLLIYYVSTLYEGIPARFSGSGSGTDFTLTISSLEPEDFAVYYCQTYEDVSAVTFGQGTKVEIKRTVAAPSVFIFPPSDEQLKSGTAEVVCLLNNFYPREAKVQWKVDNALQSGNSEESVTEQDSKDSTYSLSSTLTLSKADYEKHKVYACEVTHQGLSSPVTKSFNRGEC
heavy 2: QVQLVESGGGVVQPGRSLRLSCAASGFTFSEWYFMSWVRQAPGKGLEWVASIDTGSGSIDYAEWVEGRFTISRDNSKNTLYLQMNSLRAEDTAVYYCARDIGIDYNFWGPGTLVTVSSASTKGPSVFPLAPSSKSTSGGTAALGCLVEDYFPEPVTVSWNSGALTSGVHTFPAVLESSGLYSLSSVVTVPSSSLGTKTYICNVNHKPSNTKVDKRVEPKSCDKTHTCPPCPAPELRRGPSVFLFPPKPKDTLMISRTPEVTCVVVDVSHEDPEVKFNWYVDGVEVHNAKTKPREEQYNSTYRVVSVLTVLHQDWLNGKEYKCKVSNKALPAPIEKTISKAKGQPREPQVYTLPPSRKEMTKNQVSLTCLVKGFYPSDIAVEWESNGQPENNYKTTPPYLDSDGSFFLYSKLTVDKSRWQQGNVFSCSVLHEALHAHYTRKELSLSP
light 2: DIQMTQSPSSLSASVGDRVTITCQTTQSISSYLNWYQQKPGQPPKLLIYYASTKAEGIPARFSGSGLGTDFTLTISSLQPEDFAVYYCHYGISKVSFGQGTKVEIKRTVAAPSVFIFPPSDEQLKSGTAKVVCLLNNFYPREAKVQWKVDNALQSGNSKESVTEQDSKDSTYSLSSTLTLSKADYEKHKVYACEVTHQGLSSPVTKSFNRGEC
For B1, in assay [1], the “IC50 (ng/mL), γ3 gliadin TCR, 100 µM γ3 gliadin” value (“IC50 (ng/mL), γ3 gliadin TCR” below) is 2.88 ng/mL. Further, the “IC50 (ng/mL), γ4d gliadin TCR, 100 µM γ4d gliadin” value (from here on “IC50 (ng/mL), γ4d gliadin TCR”) in assay [2] is 16.3 ng/mL. In addition, the “IC50 (ng/mL), BC hordein TCR, 250 nM BC hordein” value (from here on “IC50 (ng/mL), BC hordein TCR”) in assay [3] worked out at 13.2 ng/mL. For the same molecule, in assay [4], the “IC50 (ng/mL), α1a gliadin TCR, 250 nM 33mer gliadin” value (shortened to “IC50 (ng/mL), α1a gliadin TCR”) stood at 0.38 ng/mL; the “IC50 (ng/mL), α1b gliadin TCR, 250 nM 33mer gliadin” value (shortened to “IC50 (ng/mL), α1b gliadin TCR”) was 1.41 ng/mL; the “IC50 (ng/mL), α2 gliadin TCR, 250 nM 33mer gliadin” value (shortened to “IC50 (ng/mL), α2 gliadin TCR”) came to 0.31 ng/mL. Also, the “IC50 (ng/mL), γ2 gliadin TCR, 250 nM γ2 gliadin” value (from here on “IC50 (ng/mL), γ2 gliadin TCR”) in assay [5] was determined as 281 ng/mL. In addition, in assay [6], the “IC50 (ng/mL), γ1 gliadin TCR, 250 nM γ1 gliadin” value (shortened to “IC50 (ng/mL), γ1 gliadin TCR”) worked out at 0.66 ng/mL. Besides, the “IC50 (ng/mL), γ4a gliadin TCR, 25 µM γ4a gliadin” value (“IC50 (ng/mL), γ4a gliadin TCR” below) in assay [7] was 726 ng/mL. Besides, in assay [8], the “IC50 (ng/mL), ω1 gliadin TCR, 25 µM ω1/2 gliadin” value (shortened to “IC50 (ng/mL), ω1 gliadin TCR”) amounted to 2.55 ng/mL and the “IC50 (ng/mL), ω2 gliadin TCR, 250 nM ω1/2 gliadin” value (from here on “IC50 (ng/mL), ω2 gliadin TCR”) amounted to 0.26 ng/mL.

B2: DQN0344H0976/L0591//DQN0385H1352/L0681-F6 (bispecific antibody)
heavy 1: QVQLVESGGGVVQPGGSLRLSCAASGFTFSSAYWMVWVRQAPGQGLEWMGAVYGGSDTTYYAKWTEGRFTISRDTSKNTLYLQMNSLRAEDTAVYYCAREPLNYYYYGELNLWGQGTLVTVSSASTKGPSVFPLAPSSKSTSGGTAALGCLVKDYFPEPVTVSWNSGALTSGVHTFPAVLKSSGLYSLSSVVTVPSSSLGTQTYICNVNHKPSNTKVDKRVEPKSCDKTHTCPPCPAPELRRGPSVFLFPPKPKDTLMISRTPEVTCVVVDVSHEDPEVKFNWYVDGVEVHNAKTKPREEQYNSTYRVVSVLTVLHQDWLNGKEYKCKVSNKALPAPIEKTISKAKGQPREPQVYTLPPSREEMTKNQVSLTCLVKGFYPSDIAVEWESNGQPENNYKTTPPYLDSDGSFFLYSKLTVDKSRWQEGNVFSCSVLHEALHAHYTREELSLSP
light 1: DIQMTQSPSSLSASVGDRVTITCQATEEIYSGLAWYQQKPGKAPKLLIYYVSTLYEGIPARFSGSGSGTDFTLTISSLEPEDFAVYYCQTYEDVSAVTFGQGTKVEIKRTVAAPSVFIFPPSDEQLKSGTAEVVCLLNNFYPREAKVQWKVDNALQSGNSEESVTEQDSKDSTYSLSSTLTLSKADYEKHKVYACEVTHQGLSSPVTKSFNRGEC
heavy 2: QVQLVESGGGVVQPGRSLRLSCAASGFEFSEWYFMSWVRQAPGKGLEWVASIDTGSGSIDYAEWVEGRFTISRDNSKNTLYLQMNSLRAEDTAVYYCARDIGIDYNFWGPGTLVTVSSASTKGPSVFPLAPSSKSTSGGTAALGCLVEDYFPEPVTVSWNSGALTSGVHTFPAVLESSGLYSLSSVVTVPSSSLGTKTYICNVNHKPSNTKVDKRVEPKSCDKTHTCPPCPAPELRRGPSVFLFPPKPKDTLMISRTPEVTCVVVDVSHEDPEVKFNWYVDGVEVHNAKTKPREEQYNSTYRVVSVLTVLHQDWLNGKEYKCKVSNKALPAPIEKTISKAKGQPREPQVYTLPPSRKEMTKNQVSLTCLVKGFYPSDIAVEWESNGQPENNYKTTPPYLDSDGSFFLYSKLTVDKSRWQQGNVFSCSVLHEALHAHYTRKELSLSP
light 2: DIQMTQSPSSLSASVGDRVTITCQTTQSISSYLNWYQQKPGQPPKLLIYYASTKAEGIPARFSGSGLGTDFTLTISSLEPEDFAVYYCHYGISKVSFGQGTKVEIKRTVAAPSVFIFPPSDEQLKSGTAKVVCLLNNFYPREAKVQWKVDNALQSGNSKESVTEQDSKDSTYSLSSTLTLSKADYEKHKVYACEVTHQGLSSPVTKSFNRGEC
On to B2, for which the “IC50 (ng/mL), γ3 gliadin TCR” value in assay [1] was found to be 2.99 ng/mL. Besides, the “IC50 (ng/mL), γ4d gliadin TCR” value in assay [2] amounted to 9.82 ng/mL. In addition, the “IC50 (ng/mL), BC hordein TCR” value in assay [3] stood at 10.8 ng/mL. For the same molecule, in assay [4], the “IC50 (ng/mL), α1a gliadin TCR” value was 0.29 ng/mL; the “IC50 (ng/mL), α1b gliadin TCR” value turned out to be 1.37 ng/mL; the “IC50 (ng/mL), α2 gliadin TCR” value came out at 0.31 ng/mL. Besides, in assay [5], the “IC50 (ng/mL), γ2 gliadin TCR” value is 284 ng/mL. Further, in assay [6], the “IC50 (ng/mL), γ1 gliadin TCR” value was found to be 1.11 ng/mL. Moreover, the “IC50 (ng/mL), γ4a gliadin TCR” value in assay [7] was 802 ng/mL. In assay [8], the “IC50 (ng/mL), ω1 gliadin TCR” value came out at 1.48 ng/mL and the “IC50 (ng/mL), ω2 gliadin TCR” value is 0.24 ng/mL.

B3: DQN0344H0976/L0591//DQN0385H1527/L0605-F6 (bispecific antibody)
heavy 1: QVQLVESGGGVVQPGGSLRLSCAASGFTFSSAYWMVWVRQAPGQGLEWMGAVYGGSDTTYYAKWTEGRFTISRDTSKNTLYLQMNSLRAEDTAVYYCAREPLNYYYYGELNLWGQGTLVTVSSASTKGPSVFPLAPSSKSTSGGTAALGCLVKDYFPEPVTVSWNSGALTSGVHTFPAVLKSSGLYSLSSVVTVPSSSLGTQTYICNVNHKPSNTKVDKRVEPKSCDKTHTCPPCPAPELRRGPSVFLFPPKPKDTLMISRTPEVTCVVVDVSHEDPEVKFNWYVDGVEVHNAKTKPREEQYNSTYRVVSVLTVLHQDWLNGKEYKCKVSNKALPAPIEKTISKAKGQPREPQVYTLPPSREEMTKNQVSLTCLVKGFYPSDIAVEWESNGQPENNYKTTPPYLDSDGSFFLYSKLTVDKSRWQEGNVFSCSVLHEALHAHYTREELSLSP
light 1: DIQMTQSPSSLSASVGDRVTITCQATEEIYSGLAWYQQKPGKAPKLLIYYVSTLYEGIPARFSGSGSGTDFTLTISSLEPEDFAVYYCQTYEDVSAVTFGQGTKVEIKRTVAAPSVFIFPPSDEQLKSGTAEVVCLLNNFYPREAKVQWKVDNALQSGNSEESVTEQDSKDSTYSLSSTLTLSKADYEKHKVYACEVTHQGLSSPVTKSFNRGEC
heavy 2: QVQLVESGGGVVQPGRSLRLSCAASGFTFASWYFMSWVRQAPGKGLEWVASIDTGSGSIDYAEWVEGRFTISRDNSKNTLYLQMNSLRAEDTAVYYCARDIGIDYNFWGPGTLVTVSSASTKGPSVFPLAPSSKSTSGGTAALGCLVEDYFPEPVTVSWNSGALTSGVHTFPAVLESSGLYSLSSVVTVPSSSLGTKTYICNVNHKPSNTKVDKRVEPKSCDKTHTCPPCPAPELRRGPSVFLFPPKPKDTLMISRTPEVTCVVVDVSHEDPEVKFNWYVDGVEVHNAKTKPREEQYNSTYRVVSVLTVLHQDWLNGKEYKCKVSNKALPAPIEKTISKAKGQPREPQVYTLPPSRKEMTKNQVSLTCLVKGFYPSDIAVEWESNGQPENNYKTTPPYLDSDGSFFLYSKLTVDKSRWQQGNVFSCSVLHEALHAHYTRKELSLSP
light 2: DIQMTQSPSSLSASVGDRVTITCQTTQSISSYLNWYQQKPGQPPKLLIYYASTKAEGIPARFSGSGSGTDFTLTISSLEPEDFAVYYCHYGISKVSFGQGTKVEIKRTVAAPSVFIFPPSDEQLKSGTAKVVCLLNNFYPREAKVQWKVDNALQSGNSKESVTEQDSKDSTYSLSSTLTLSKADYEKHKVYACEVTHQGLSSPVTKSFNRGEC
For B3, the “IC50 (ng/mL), γ3 gliadin TCR” value in assay [1] stood at 2.09 ng/mL. For the same molecule, the “IC50 (ng/mL), γ4d gliadin TCR” value in assay [2] amounted to 11.4 ng/mL. For the same molecule, in assay [3], the “IC50 (ng/mL), BC hordein TCR” value came to 6.54 ng/mL. In assay [4], the “IC50 (ng/mL), α1a gliadin TCR” value is 0.7 ng/mL; the “IC50 (ng/mL), α1b gliadin TCR” value was found to be 1.84 ng/mL; the “IC50 (ng/mL), α2 gliadin TCR” value turned out to be 0.51 ng/mL. Besides, in assay [5], the “IC50 (ng/mL), γ2 gliadin TCR” value is 637 ng/mL. Further, the “IC50 (ng/mL), γ1 gliadin TCR” value in assay [6] stood at 0.59 ng/mL. In addition, in assay [7], the “IC50 (ng/mL), γ4a gliadin TCR” value is 1210 ng/mL. Besides, in assay [8], the “IC50 (ng/mL), ω1 gliadin TCR” value stood at 3.25 ng/mL and the “IC50 (ng/mL), ω2 gliadin TCR” value was determined as 0.3 ng/mL.
